These results are taken from US20220144895A1, “DE NOVO DESIGN OF TUNABLE PH-DRIVEN CONFORMATIONAL SWITCHES” (University of Washington, priority 2019, published 2022).

Entries after “also recorded” stand apart in the source; their conditions may differ.

Series [1] in a line: Cryo-electron microscopy and tomography of proteins with DOPC liposomes. The conditions noted are these: gold-nanoparticle conjugates; for membrane deformation and disruption by cryo-EM: pH 5. How it is done:
The conjugation reactions were performed immediately prior to use for electron microscopy imaging. […] The grids were prepared using a Vitrobot Mark IV (FEI) at 4 C and 100% humidity before being plunge-frozen in ethane cooled with liquid nitrogen.
Electron micrographs were collected using a Tecnai G2 Spirit™ Transmission Electron Microscope (FEI) operated at 120 kV and equipped with a 4k×4k Gatan Ultrascan CCD camera at a nominal magnification of 26,000× or a Tecnai TF-20 Transmission Electron Microscope (FEI) operated at 200 kV equipped with a K2 Summit Direct Electron Detector (Gatan).
Projection micrographs collected on the TF-20 were captured with the detector operating in counting mode. Specimens were imaged at 14,500 magnification, giving a pixel size of 0.254 nm, with a dose of ˜18e−/Å^2 across 75 200 ms movie frames. Data were collected in a semi-automated fashion using Leginon™ (49) and micrograph movie frames were aligned using MotionCor2™ (50). Leginon™ was used to collect tomography tilt series from −48 to +48 degrees bidirectionally in 3 degree increments with a total accumulated dose of ˜100 e−/Å^2. Reconstructions were processed using etomo in the IMOD™ software suite (31) with CTF parameters estimated from CTFFIND4™ (52). Reconstructed tomograms were visualized and measurements were made using ImageJ™ (53).

The nature of series [2]: Size-exclusion chromatography (SEC). It counts as physicochemical. The conditions noted are these: Superdex 75, Na2PO4-Citrate buffer pH 4. The protocol:
Cells were lysed by microfluidization in the presence of 1 mM PMSF. Lysates were clarified by centrifugation at 24,000 ref at 4° C. for at least 30 minutes. Proteins were purified by Immobilized metal affinity chromatography (IMAC): supernatant was applied to Ni-NTA (Qiagen) columns pre-equilibrated in lysis buffer. The column was washed twice with 15 column volumes (CV) of wash buffer (25 mM Tris pH 8.0 at room temperature, 300 mM NaCl, 40 mM Imidazole), followed by 3-5 CV of high-salt wash buffer (25 mM Tris pH 8.0 at room temperature, 1 M NaCl, 40 mM Imidazole) then an additional 15 CV of wash buffer. Protein was eluted with 250 mM Imidazole, and buffer-exchanged into 25 mM Tris pH 8.0 and 150 mM NaCl without imidazole for cleavage of the N-terminal hexahistidine tag by purified hexahistidine-tagged TEV protease (with the exception of design pRO-1, which was cleaved using restriction grade thrombin (EMD Millipore 69671-3) at room temperature for 4 hours or overnight, using a 1:3000 dilution of enzyme into sample solution). A second Ni-NTA step was used to remove hexahistidine tag, uncleaved sample and the hexahistidine-tagged TEV protease, and the cleaved proteins were then […], 150 mM NaCl, and 2% glycerol.

Another series relates to U2-OS cells. In words: Lysosomal pH with LysoSensor Yellow/Blue DND-160. The format is cell-based. The note with it: 5 μM protein, 1 hr, LysoSensor yellow/blue ratio. How it is done: The final concentration of 5 μM+36GFP fusion proteins was incubated with the LAMP1-HaloTag™ expressing U-2 OS cells on a pre-coated coverslip for 1 hr. Cells were fixed with 4% paraformaldehyde for 20 min at room temperature (RT) and quenched/rinsed with PBS supplemented with 30 mM glycine. Then, the coverslips were mounted on FluoroSave™ (Millipore). For pH measurement of the lysosome, LysoSensor™ Yellow/Blue DND-160 was incubated at 1 mg/mL overnight and washed twice prior to imaging (54). The final concentration of 5 μM protein was incubated with the LAMP1-HaloTag expressing U2-OS cells that were loaded with 1 mg/mL LysoSensor™ Yellow/Blue DND-160 for 1 hr. In separate chambers, LysoSensor™ Yellow/Blue DND-160 loaded cells were incubated with bafilomycin A1 (1 μM) and chloroquine (50 μM) for 1 hr as a control. For live cell confocal microscopy, Zeiss 880 was used to collect LysoSensor™ Yellow/Blue signal. LysoSensor™ Yellow/Blue was excited with a 405 nm laser, and its emission was collected into the two regions (Blue=410-499 nm Yellow=500-600 nm) using a Plan-Apochromat 63×/1.4 oil DIC objective. The ratio of the two channels was calculated using the home-built software in Matlab™.

B1: pRO-2: designed pH-responsive homotrimer, SEQ ID NO: 1-2 (protein)
chain 1: MGSHHHHHHGSGSENLYFQGSEYEIRKALEELKAATAELKRATASLRAITEELKKNPSEDALVEHNRAIVEHNAIIVEHNRIIAAVLELIVRAIK
chain 2: SEYEIRKALEELKAATAELKRATASLRAITEELKKNPSEDALVEHNRAIVEHNAIIVEHNRIIAAVLELIVRAIK
For B1, in series [1], the “membrane deformation and disruption by cryo-EM” value is “widespread membrane deformation and disruption of the lipid bilayer”. The “state by SEC at pH 4” value in series [2] is “soluble aggregate”.

B2: pRO-2 I56V: pRO-2 mutant, SEQ ID NO: 17-18 (protein)
chain 1: MGSHHHHHHGSGSENLYFQGSEYEIRKALEELKAATAELKRATASLRAITEELKKNPSEDALVEHNRAIVEHNAIVVEHNRIIAAVLELIVRAIK
chain 2: GSEYEIRKALEELKAATAELKRATASLRAITEELKKNPSEDALVEHNRAIVEHNAIVVEHNRIIAAVLELIVRAIK
Consider B2, for which the “membrane deformation and disruption by cryo-EM” value in series [1] was “widespread membrane deformation and disruption of the lipid bilayer”. In series [1] (pH 5 and pH 8), the “interaction with liposomes by cryo-EM” value is “directly interacts with liposomes at pH 5 but not at pH 8; also recorded: interacts directly with liposomes at pH 5 but not pH 8”. Further, the “change of lysosomal pH” value with U2-OS cells is “larger changes in lysosomal pH than two drugs; also recorded: increases the lysosomal pH more than the small molecule drugs”; with U2-OS cells (listed as pRO-256V) it was “raises the lysosomal pH”.
